# Laboratory results taken from the supplement of paper PMC12764529.
# ± gives the half width of the 95% confidence interval.
# Experiments:
# [1] = folding stability dG unfold from trypsin proteolysis; higher = more stable
# In short: (§1)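 Unfolding free energy was derived, per protease or combined, by relating Bayesian-fitted K50 values from sequencing counts to a sequence-predicted unfolded-state K50 and a shared folded-state K50. The underlying digests exposed cysteine-free mini-proteins under 80 residues, in a PA-tagged cDNA display construct, to trypsin and chymotrypsin at 11 threefold-diluted concentrations and to a no-protease condition. A filter kept only designs with AlphaFold2 dimer inter-PAE above 15.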
# [2] = folding stability dG unfold from chymotrypsin proteolysis; higher = more stable
# In short: as §1
# [3] = folding stability dG unfold (combined trypsin and chymotrypsin); higher = more stable
# In short: as §1
sequence,measurement,setting,value
SAGGENYTFEMEITIPIPLPNPNGKLKKLPIKVPIEYEYDDPAQRNQAMQNMIMRIIDLALKELGVPSAGGS [r16_339_TrROS],folding stability dG unfold,[1],1.46 ± 0.048 kcal/mol
same,folding stability dG unfold,[2],2.12 ± 0.04 kcal/mol
same,folding stability dG unfold,[3],1.9 ± 0.16 kcal/mol
SAGGESYPFIGRNPETNALIEVTVTKLESGEYLVNATITNPNGETVEFPFTFPANSLTPESEIDVTITSAGG [r13_959_TrMRF],folding stability dG unfold,[1],1.65 ± 0.051 kcal/mol
same,folding stability dG unfold,[2],1.21 ± 0.074 kcal/mol
same,folding stability dG unfold,[3],1.44 ± 0.054 kcal/mol
SAGGETKTFTIDEIRAKLKEALDNGIDEVRITVFRDGKEEEITIPASKLDEIIASLPPDATVRIERVSAGGS [r16_636_TrROS_Hall],folding stability dG unfold,[1],2.02 ± 0.042 kcal/mol
same,folding stability dG unfold,[2],1.86 ± 0.11 kcal/mol
same,folding stability dG unfold,[3],1.97 ± 0.13 kcal/mol
SAGGETVTTESYQPLPTGPGLSFKNVVTTEEDVNNPGVKYTTTEVTAELVNPEGDESTTTTSTVTAASAGGS [r16_217_JUSTAS],folding stability dG unfold,[1],0.0281 ± 0.035 kcal/mol
same,folding stability dG unfold,[2],0.00547 ± 0.22 kcal/mol
same,folding stability dG unfold,[3],0.112 ± 0.14 kcal/mol
SAGGEVKYEHEGKNPDNGNMYKQEQEVPPVPIPPVIVIPAEDLDEFRELGIPENFKILPGNGWIVITSAGGS [r16_194_TrROS],folding stability dG unfold,[1],0.44 ± 0.091 kcal/mol
same,folding stability dG unfold,[2],0.154 ± 0.25 kcal/mol
same,folding stability dG unfold,[3],0.425 ± 0.13 kcal/mol
SAGGEVRLRLEAELLPDGTLVLRGRVEVRVGDRVFEFEFELVLRLEPVPPPPAPARPLLIPERLLDASAGGS [r8_269_TrMRF],folding stability dG unfold,[1],1.47 ± 0.098 kcal/mol
same,folding stability dG unfold,[2],2.4 ± 0.065 kcal/mol
same,folding stability dG unfold,[3],2.13 ± 0.12 kcal/mol
SAGGEWHEISIKFPNPEEIEEALREAFPPGMDVDPDVEPNPNGWEVEIEVPRNNPDRVQNAIKEALDSAGGS [r16_43_TrROS],folding stability dG unfold,[1],0.452 ± 0.035 kcal/mol
same,folding stability dG unfold,[2],0.469 ± 0.031 kcal/mol
same,folding stability dG unfold,[3],0.492 ± 0.11 kcal/mol
SAGGEWRKITVPIKYRFPPGESIDSIANELANLPGLKVEVNVEYEKDPDGRYYMEIPVEIEIPPGAPISAGG [r13_590_TrROS],folding stability dG unfold,[1],0.341 ± 0.074 kcal/mol
same,folding stability dG unfold,[2],0.669 ± 0.16 kcal/mol
same,folding stability dG unfold,[3],0.576 ± 0.12 kcal/mol
SAGGFEEKVKAGEEVVDVVAPITLPDGTEAVVTRVEPVDDGLLVTLRPPWTGEEVELPLPASEIPKLPSAGG [r13_340_JUSTAS],folding stability dG unfold,[1],1.1 ± 0.057 kcal/mol
same,folding stability dG unfold,[2],1.21 ± 0.056 kcal/mol
same,folding stability dG unfold,[3],1.11 ± 0.077 kcal/mol
SAGGFEFKAVKLKKNEEKEGELGGAKVRYVSDNKGPVYQVVEFGPEYRALAKVEGDKVELVAVEEGNPSAGG [r13_92_TrMRF],folding stability dG unfold,[1],-1.02 ± 0.66 kcal/mol
same,folding stability dG unfold,[2],0.00343 ± 0.21 kcal/mol
same,folding stability dG unfold,[3],-0.21 ± 0.16 kcal/mol
SAGGFGIKIDEFDPDGEFRISIYDPDTWQPIAEFRIKIKPVPPPPPVEKRPYKDDDGEPKTVTHPDDQSAGG [r13_9_TrROS],folding stability dG unfold,[1],0.542 ± 0.12 kcal/mol
same,folding stability dG unfold,[2],1.73 ± 0.19 kcal/mol
same,folding stability dG unfold,[3],1.43 ± 0.2 kcal/mol
SAGGFIRIETPNGKKISPEVREEAEEAIRDGDWDDAVKKISDWLRERFGHPMPIKIEVMMPPPKPPKSAGGS [r8_48_TrROS],folding stability dG unfold,[1],0.547 ± 0.061 kcal/mol
same,folding stability dG unfold,[2],1.19 ± 0.11 kcal/mol
same,folding stability dG unfold,[3],0.995 ± 0.18 kcal/mol
SAGGFKIEIEKNPEPDGIVIVIEYDMPPKGIKDFIEELFGPNPKDVTTEEHPNGRTEVTFRIPPGAPSAGGS [r16_605_TrROS],folding stability dG unfold,[1],-0.426 ± 0.43 kcal/mol
same,folding stability dG unfold,[2],0.33 ± 0.34 kcal/mol
same,folding stability dG unfold,[3],0.268 ± 0.3 kcal/mol
SAGGFTIEFPLPPGESPDEIKDEIMDMVRPIADEHGFKNVKIPITNVRWQPPGRRRFTINIEIKFPGSAGGS [r8_184_TrROS],folding stability dG unfold,[1],0.723 ± 0.16 kcal/mol
same,folding stability dG unfold,[2],0.465 ± 0.24 kcal/mol
same,folding stability dG unfold,[3],0.727 ± 0.22 kcal/mol
SAGGGADVISAYDPETVEELSKLPWVTSVTYDPETGRYDIRFERPDGQYNYVVDNVTKEVLEVSPVDSAGGS [r8_251_TrMRF],folding stability dG unfold,[1],1.03 ± 0.07 kcal/mol
same,folding stability dG unfold,[2],1.29 ± 0.053 kcal/mol
same,folding stability dG unfold,[3],1.3 ± 0.1 kcal/mol
SAGGGALVLPDPDVPDDLPLVVVDPENGTVTLLHFDRETGRVRARVVRLGDGVPEEEEAVFPVAPDALSAGG [r13_851_TrMRF],folding stability dG unfold,[1],0.242 ± 0.11 kcal/mol
same,folding stability dG unfold,[2],-0.261 ± 0.18 kcal/mol
same,folding stability dG unfold,[3],0.078 ± 0.11 kcal/mol
SAGGGDLEVELVEEREFTFPDGLRRRLLVVRFPDGFLAIPVYVRPPGGGWRLLARFVLRIGPPRPEEGSAGG [r13_494_TrMRF],folding stability dG unfold,[1],3.22 ± 0.054 kcal/mol
same,folding stability dG unfold,[2],4.29 ± 0.043 kcal/mol
same,folding stability dG unfold,[3],3.82 ± 0.08 kcal/mol
SAGGGDWYKVTVKVDGNPEVAEALVEKLLEEVGEEVVFEPRPGEQTVTFYVPKELLPLLEELGIEVEPSAGG [r13_156_TrMRF],folding stability dG unfold,[1],2.24 ± 0.11 kcal/mol
same,folding stability dG unfold,[2],2.632 ± 0.02 kcal/mol
same,folding stability dG unfold,[3],2.56 ± 0.13 kcal/mol
SAGGGEKWKIKFKDAEAYINAPEGKVEIVPPDGSKITIDFPPDIPPEVVAKLLAEELGFDEAEIEPVESAGG [r13_852_TrMRF],folding stability dG unfold,[1],-0.263 ± 0.085 kcal/mol
same,folding stability dG unfold,[2],0.357 ± 0.13 kcal/mol
same,folding stability dG unfold,[3],0.168 ± 0.14 kcal/mol
SAGGGEYYAIVRIEVKDPESEETSELELVIPVEGLSEEEALEIARAIAETFPKENVKAEVEIVPRELSAGGS [r16_774_TrMRF],folding stability dG unfold,[1],1.05 ± 0.043 kcal/mol
same,folding stability dG unfold,[2],0.896 ± 0.16 kcal/mol
same,folding stability dG unfold,[3],0.936 ± 0.11 kcal/mol
SAGGGFDPSKLKKEKTLTLTLPGNSETFTIELYLPEDGESTVVFSYNDKNYELTITKDSITLKPVSSSAGGS [r16_711_JUSTAS],folding stability dG unfold,[1],2.38 ± 0.13 kcal/mol
same,folding stability dG unfold,[2],3.01 ± 0.045 kcal/mol
same,folding stability dG unfold,[3],2.79 ± 0.2 kcal/mol
SAGGGIVIPVPAETARELLEKLAPDGADVTVESLGSLGGGEVYRATFTDPVFGNTVDIEVLVGPEGGSAGGS [r16_486_TrMRF],folding stability dG unfold,[1],0.392 ± 0.028 kcal/mol
same,folding stability dG unfold,[2],0.301 ± 0.13 kcal/mol
same,folding stability dG unfold,[3],0.437 ± 0.096 kcal/mol
SAGGGLANLSLEEIRQLLLEKFPELPVEVKVTPVDEKDGVVLVTVRPPLPDGSTVESEEELPLEPGLSAGGS [r16_564_JUSTAS],folding stability dG unfold,[1],0.661 ± 0.025 kcal/mol
same,folding stability dG unfold,[2],-1.28 ± 0.41 kcal/mol
same,folding stability dG unfold,[3],0.229 ± 0.074 kcal/mol
SAGGGLEEFARRLAEELARLLGGPNVPFELEGVVVFGFRLRPDGTPEPTTSRPVVVRVRFETPGGDPSAGGS [r16_156_TrMRF],folding stability dG unfold,[1],2.7 ± 0.11 kcal/mol
same,folding stability dG unfold,[2],4.09 ± 0.044 kcal/mol
same,folding stability dG unfold,[3],3.58 ± 0.1 kcal/mol
SAGGGLPASDPDVTATTETFTVTYTEATPEGNPVTTTTTTTVTTYTAPDGAVTTTTTTTSTTVTPASTSAGG [r13_51_JUSTAS],folding stability dG unfold,[1],1.7 ± 0.062 kcal/mol
same,folding stability dG unfold,[2],1.77 ± 0.023 kcal/mol
same,folding stability dG unfold,[3],1.76 ± 0.038 kcal/mol
SAGGGLSPDTPVNYVVFVELPNGERRTFNVPGPAGRPEVAIAIAEKLREEGYEVKAIFPGEGVIVVGSAGGS [r8_497_TrMRF],folding stability dG unfold,[1],2.88 ± 0.12 kcal/mol
same,folding stability dG unfold,[2],3.117 ± 0.0089 kcal/mol
same,folding stability dG unfold,[3],2.98 ± 0.08 kcal/mol
SAGGGMKISTVETKPESDGSIVITIKVYDANGNEIKTYTIPLKGLSNVTITIPVANNPIEVSIPATLSSAGG [r13_427_JUSTAS],folding stability dG unfold,[1],1.48 ± 0.037 kcal/mol
same,folding stability dG unfold,[2],2.05 ± 0.078 kcal/mol
same,folding stability dG unfold,[3],1.84 ± 0.13 kcal/mol
SAGGGMLLTTTQTITLPNGTLLTVTSTFTLTPPAVPVPVVELDESSIAEYDPATGILTDPSVPTPIPVPSAG [r5_807_JUSTAS],folding stability dG unfold,[1],0.733 ± 0.066 kcal/mol
same,folding stability dG unfold,[2],0.596 ± 0.11 kcal/mol
same,folding stability dG unfold,[3],0.766 ± 0.1 kcal/mol
SAGGGMNISVDPNQSVTIPVTRIENGVPVETTVTISLPAGSTISPEGDNIIINYPHTGQTITLPTTLISAGG [r13_275_JUSTAS],folding stability dG unfold,[1],1.36 ± 0.043 kcal/mol
same,folding stability dG unfold,[2],-0.174 ± 0.1 kcal/mol
same,folding stability dG unfold,[3],0.862 ± 0.041 kcal/mol
SAGGGMSTLVRLPPGGVEEREVPPGTEADLNAEFSPESKLVVRTFDPATGRWTETVYEPGGVPTVLSSSAGG [r13_74_JUSTAS],folding stability dG unfold,[1],2.91 ± 0.082 kcal/mol
same,folding stability dG unfold,[2],3.65 ± 0.21 kcal/mol
same,folding stability dG unfold,[3],3.41 ± 0.32 kcal/mol
SAGGGMVITTPQTTSTTFSPPTAPAVPAPFTQSSSFTIGNTKVTVTTTQAAGSGTTTVTLTTILPPLASAGG [r13_998_JUSTAS],folding stability dG unfold,[1],1 ± 0.034 kcal/mol
same,folding stability dG unfold,[2],1.18 ± 0.089 kcal/mol
same,folding stability dG unfold,[3],1.12 ± 0.065 kcal/mol
SAGGGNIRPVRIERLPDGSLLIVLVADSPDDAFSDESTLDALPGEEELLEARYDPSTGRVLLVRRFRPSAGG [r13_413_TrMRF],folding stability dG unfold,[1],1.33 ± 0.055 kcal/mol
same,folding stability dG unfold,[2],1.71 ± 0.064 kcal/mol
same,folding stability dG unfold,[3],1.55 ± 0.071 kcal/mol
SAGGGNKVLLVVEAESPEVLEEKIREAEEAFGFTVTPLRREPLPDDRYRLVLEIDAPPEVVEFFKKESAGGS [r8_357_TrMRF],folding stability dG unfold,[1],1.15 ± 0.032 kcal/mol
same,folding stability dG unfold,[2],1.35 ± 0.092 kcal/mol
same,folding stability dG unfold,[3],1.3 ± 0.045 kcal/mol
SAGGGPLKPILLKVTAKVEKNGKLLEVEAEIAVPLPNKPITLEEIRKILEEALPPDVKIVSLELDPESAGGS [r16_407_TrMRF],folding stability dG unfold,[1],2.99 ± 0.2 kcal/mol
same,folding stability dG unfold,[2],2.6 ± 0.075 kcal/mol
same,folding stability dG unfold,[3],2.67 ± 0.21 kcal/mol
SAGGGPPPVEVTTSTDPSTGKVTTTVTAGPAGTRFTSSSPNGSSTTTTTVTYVGDTWEVSTSSTSSSSAGGS [r16_631_JUSTAS],folding stability dG unfold,[1],1.21 ± 0.061 kcal/mol
same,folding stability dG unfold,[2],1.37 ± 0.11 kcal/mol
same,folding stability dG unfold,[3],1.31 ± 0.1 kcal/mol
SAGGGPVTEETYTIKRPDGTELVVTRYYFPGTGETVVRIYPPSTKTPLSTVPLSEASPELLAEIARRSAGGS [r8_32_JUSTAS],folding stability dG unfold,[1],1.2 ± 0.027 kcal/mol
same,folding stability dG unfold,[2],2.108 ± 0.013 kcal/mol
same,folding stability dG unfold,[3],1.79 ± 0.03 kcal/mol
